From patent US20260364189 (published 2026)

T1: fasTFR1 (cell-expressed) (Macaca fascicularis)
T1 chain: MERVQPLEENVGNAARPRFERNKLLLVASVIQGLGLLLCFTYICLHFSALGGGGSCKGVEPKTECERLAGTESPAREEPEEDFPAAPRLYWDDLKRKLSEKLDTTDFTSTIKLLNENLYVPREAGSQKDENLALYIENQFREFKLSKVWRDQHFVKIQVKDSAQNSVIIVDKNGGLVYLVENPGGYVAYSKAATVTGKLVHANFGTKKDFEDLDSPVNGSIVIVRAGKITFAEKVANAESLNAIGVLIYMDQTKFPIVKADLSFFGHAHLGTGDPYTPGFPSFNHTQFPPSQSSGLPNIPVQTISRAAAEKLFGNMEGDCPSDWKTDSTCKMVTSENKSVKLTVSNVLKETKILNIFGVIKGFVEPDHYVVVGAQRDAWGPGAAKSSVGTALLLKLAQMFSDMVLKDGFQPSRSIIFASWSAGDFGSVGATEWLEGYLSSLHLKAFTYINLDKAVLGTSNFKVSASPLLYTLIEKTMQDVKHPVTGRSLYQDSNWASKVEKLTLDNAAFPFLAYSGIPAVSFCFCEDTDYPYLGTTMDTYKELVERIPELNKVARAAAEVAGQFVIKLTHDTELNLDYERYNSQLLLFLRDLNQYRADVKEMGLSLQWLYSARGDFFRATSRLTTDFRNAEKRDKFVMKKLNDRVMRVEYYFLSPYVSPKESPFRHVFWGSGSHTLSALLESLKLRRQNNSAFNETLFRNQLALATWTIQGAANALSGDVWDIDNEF


Columns and labels:
hTFR1-His = hTFR1-His (human, UniProt P02786); assay: SPR
hTFR1-His, sequence (P02786 89-760): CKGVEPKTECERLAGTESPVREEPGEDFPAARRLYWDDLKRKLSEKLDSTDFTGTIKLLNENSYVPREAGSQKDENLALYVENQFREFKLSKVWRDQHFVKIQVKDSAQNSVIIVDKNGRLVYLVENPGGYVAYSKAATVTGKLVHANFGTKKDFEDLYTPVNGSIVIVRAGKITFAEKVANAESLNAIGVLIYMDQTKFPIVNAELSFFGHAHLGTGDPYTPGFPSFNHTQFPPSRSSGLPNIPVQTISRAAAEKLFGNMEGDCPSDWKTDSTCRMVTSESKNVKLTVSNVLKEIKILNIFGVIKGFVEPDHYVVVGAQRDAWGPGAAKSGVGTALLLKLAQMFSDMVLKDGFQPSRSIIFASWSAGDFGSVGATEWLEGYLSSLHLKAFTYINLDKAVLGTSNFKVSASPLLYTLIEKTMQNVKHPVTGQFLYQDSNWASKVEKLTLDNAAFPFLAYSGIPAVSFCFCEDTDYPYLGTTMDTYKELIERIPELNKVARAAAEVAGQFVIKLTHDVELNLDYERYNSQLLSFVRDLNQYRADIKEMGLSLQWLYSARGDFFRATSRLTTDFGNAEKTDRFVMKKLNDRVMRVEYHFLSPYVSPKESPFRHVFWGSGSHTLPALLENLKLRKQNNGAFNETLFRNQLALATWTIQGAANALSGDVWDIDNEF

fasTFR1 (cell-expressed) = molecular target: T1, fasTFR1 (cell-expressed); assay: FACS

Row | Kd (hTFR1-His) | binding result (fasTFR1 (cell-expressed)) | Binder
1 | 8.73 nM |  | 23B8 (antibody, V domains shown) VH: QVTLKESGGGLVKPGGSLRLSCAASGFPFSNAWMNWVRQAPGKGLEWVGHIKSKTDGGTTDYAAPVKGRFTISRDDSKNMVFLQMNSLKTEDTAVYYCTTDRAYCGGDCSHYYYHDLDVWGQGTTVTVSS
2 | 2.05 nM |  | 24G5 (designed binder) QLQLQESGGGLVQPGGSLRLTCAASGFTFSSFAMSWVRQAPGKGLERVSEISDSGGNTYYADSVKGRFTISRDNSKNTLYLQMNSLRAEDTAVYYCAKDDSSGWAFNIWDQGTVVTVSS
3 | 2.93 nM |  | 24A1 (designed binder) EVQLVESGGGLVQPGGSLRLTCAASGFTFSSYAMSWVRQAPGKGLERVSEISGSGSSTNYADSVKGRFTISRDNSKNTLYLQMNSLRAEDTAVYYCAKDDSSGWAFNIWDQGTVVTVSS
4 | 14.3 nM | no binding | 24C9 (antibody, V domains shown) VH: EVQLVQSGGGVVQPGRSLRLSCAASGFTLSSYGMYWVRQAPGKGREWVAFIRFDESKKYYADSVKGRFTISRDNSKNTLYLQMNSLRAEDTAVYYCARDGEGGYCTNGVCHGLDVWGQGTTVTVSS
